The text below walks through data of patent US20250262292A1.

In assay [1] the target is native host protein. In words: method not stated; reference is wild type PmSLP-1 (SEQ.ID NO: 2).
Assay [2] addresses native host protein. Put plainly: method not stated.

As to “modified PmSLP-1 with E240A mutation (SEQ.ID NO: 67)”, the factor by which Kd exceeds that of the native non-modified PmSLP with native host protein [1] is greater than 500 fold. In addition, the Kd (commonly a measure of binding affinity in units of concentration) in the assay with native host protein [2] is less than 2000 nM.
The corresponding values for “modified PmSLP-1 with V214D mutation (SEQ.ID NO: 65)” are greater than 500 fold and less than 2000 nM.
“wild type PmSLP-1 protein of P. multocida (SEQ.ID NO: 2)” gave a dissociation constant Kd in the assay with native host protein [2] of 30 nM.
